US8461106B2, “Biofilm prevention using lactoferrin” (The Trustees of the University of Pennsylvania, priority 2007, dated 2013)

Test system: Pseudomonas aeruginosa (PAO1)
Assay: Plate based peg-lid crystal violet biofilm formation assay (Moskowitz)
Format: cell-based
Conditions: for detergent induced biofilm formation, effect of concomitant rhLactoferrin: 3 mg/ml rhLactoferrin
Procedure: Biofilm growth is determined using the plate based assay described by Moskowitz et al [Moskowitz, S. M., J. M. Foster, J. Emerson, et al., Clinically Feasible Biofilm Susceptibility Assay for Isolates of Pseudomonas Aeruginosa from Patients with Cystic Fibrosis. J Clin Microbiol, 2004. 42(5): p. 1915-22]. Pseudomonas aeruginosa (PAO1) cultures are grown to log phase (OD600=0.5) and 100 μl of culture is mixed with 25 μl of test 5× test substance and placed in 96 well flat bottom plates (Nalgene Nunc International, Rochester, N.Y.). A lid containing 96 polystyrene pegs (Nunc, TSP 96 well micro titer plate lid) is placed on top and the pegs are suspended in the wells. The lid is loosely fixed to the plate using a strip of parafilm (Menasha, Wis.). The plate is incubated without shaking at 37° C. for 20 hours at which time the lid containing the pegs is carefully removed from the 96 well culture plate and rinsed 3 times in sterile water. The pegs are placed in another 96 well plate containing Gram Crystal Violet (CV) (20 g/L CV, 8 g/L Ammonium Oxalate, 2% ethanol) for 15 min and then rinsed in sterile water three times to remove unbound crystal violet. The pegs are then immersed in a 96 well plate containing 200 ul of 100% EtOH for 15 minutes. The lid containing the pegs is removed from the eluted crystal violet and is read at 595 nm using a plate reader (Microplate Reader 680, Bio-Rad Hercules, Calif.).
These mutants are used as negative controls in each of the experiments to determine background signal above the blank.
The concentration of baby shampoo/chemical surfactant used for the clinical study was determined through in-vitro testing on planktonic pseudomonas aeruginosa and pre-formed pseudomonas aeruginosa biofilms. Bacterial and biofilm growth inhibition was determined using the plate based assay described in Moskowitz et al., (Clinically feasible biofilm susceptibility assay for isolates of Pseudomonas aeruginosa from patients with cystic fibrosis. J. Clinical Microbiology 2004; 42:1915-22). Briefly, PAO1 Pseudomonas aeruginosa bacterial strains were grown overnight. The following morning the culture was diluted to an OD600=0.1 with Luria-Bertani broth (LB) and the sample again diluted 1:100 in LB. […] At the completion of the incubation the lid containing the pegs was removed and processed for biofilm detection while the 96 well plate was analyzed for bacterial growth by determination of absorbance at 600 nm. […] The peg lid was then discarded and the eluted crystal violate was read on a microtiter plate reader (Microplate Reader 680, Bio-Rad Hercules, Calif.) at an optical density of 595 nm (OD595). […] Quantification of residual biofilms was performed as described above.

B1: rhLactoferrin: Recombinant human lactoferrin produced in Aspergillus niger, structurally identical to native human lactoferrin (protein, UniProt P02788 20-710, looked up)
Lactotransferrin: GRRRSVQWCAVSQPEATKCFQWQRNMRKVRGPPVSCIKRDSPIQCIQAIAENRADAVTLDGGFIYEAGLAPYKLRPVAAEVYGTERQPRTHYYAVAVVKKGGSFQLNELQGLKSCHTGLRRTAGWNVPIGTLRPFLNWTGPPEPIEAAVARFFSASCVPGADKGQFPNLCRLCAGTGENKCAFSSQEPYFSYSGAFKCLRDGAGDVAFIRESTVFEDLSDEAERDEYELLCPDNTRKPVDKFKDCHLARVPSHAVVARSVNGKEDAIWNLLRQAQEKFGKDKSPKFQLFGSPSGQKDLLFKDSAIGFSRVPPRIDSGLYLGSGYFTAIQNLRKSEEEVAARRARVVWCAVGEQELRKCNQWSGLSEGSVTCSSASTTEDCIALVLKGEADAMSLDGGYVYTAGKCGLVPVLAENYKSQQSSDPDPNCVDRPVEGYLAVAVVRRSDTSLTWNSVKGKKSCHTAVDRTAGWNIPMGLLFNQTGSCKFDEYFSQSCAPGSDPRSNLCALCIGDEQGENKCVPNSNERYYGYTGAFRCLAENAGDVAFVKDVTVLQNTDGNNNEAWAKDLKLADFALLCLDGKRKPVTEARSCHLAMAPNHAVVSRMDKVERLKQVLLHQQAKFGRNGSDCPDKFCLFQSETKNLLFNDNTECLARLHGKTTYEKYLGPQYVAGITNLKKCSTSPLLEACEFLRK
modifications: recombinant, Aspergillus niger
Induction by Curosurf, FIG. 5 bottom panel
  detergent induced biofilm formation, effect of concomitant rhLactoferrin: blunts the induction of biofilm formation
Induction by Johnson and Johnson Baby Shampoo, FIG. 5 top panel
  detergent induced biofilm formation, effect of concomitant rhLactoferrin: blunts the induction of biofilm formation
Detergents in general, FIGS. 4 and 5
  detergent induced biofilm formation, effect of rhLactoferrin: inhibits detergent induced biofilm formation
Subtherapeutic Cephalosporins and aminoglycosides, FIG. 3
  induction of biofilm formation by subtherapeutic concentrations of antibiotics, effect of added rhLactoferrin: blunted
